{"source": "the Human Domainome abundance scans (Beltran et al. 2025)", "parents": {"B1": {"name": "Serine/threonine-protein kinase A-Raf, residues 21 to 89; numbered along this chain, P10398 (parent)", "chain": "VKVYLPNKQRTVVTVRDGMSVYDSLDKALKVRGLNQDCCVVYRLIKGRKTVTAWDTAIAPLDGEELIVE"}}, "note": "± gives the uncertainty stated by the source.", "data": [{"variants_of": "B1", "assay": "abundance fitness (aPCA) (normalised: wild type 0, dead -1); higher = more abundant; growth selection in yeast, the domain comes from the species named", "conditions": "Homo sapiens", "values": [{"variant": "V15G", "abundance fitness": "-0.17 ± 0.036"}, {"variant": "V15L", "abundance fitness": "-0.105 ± 0.042"}, {"variant": "V3L", "abundance fitness": "-0.191 ± 0.037"}, {"variant": "V3M", "abundance fitness": "-0.814 ± 0.18"}, {"variant": "V3W", "abundance fitness": "-0.877 ± 0.1"}, {"variant": "V3S", "abundance fitness": "-0.856 ± 0.09"}, {"variant": "V3Y", "abundance fitness": "-0.016 ± 0.14"}, {"variant": "V3D", "abundance fitness": "-0.794 ± 0.2"}, {"variant": "V3I", "abundance fitness": "-0.298 ± 0.16"}, {"variant": "G33S", "abundance fitness": "-0.525 ± 0.089"}, {"variant": "G33R", "abundance fitness": "-0.712 ± 0.081"}, {"variant": "G33L", "abundance fitness": "-0.942 ± 0.2"}, {"variant": "G33N", "abundance fitness": "-0.473 ± 0.14"}, {"variant": "G33T", "abundance fitness": "-0.626 ± 0.2"}, {"variant": "G33C", "abundance fitness": "-0.694 ± 0.2"}, {"variant": "D55H", "abundance fitness": "-0.234 ± 0.087"}, {"variant": "D55L", "abundance fitness": "-0.908 ± 0.076"}, {"variant": "D55E", "abundance fitness": "-0.089 ± 0.036"}, {"variant": "D55V", "abundance fitness": "-0.773 ± 0.062"}, {"variant": "D55A", "abundance fitness": "-0.346 ± 0.041"}, {"variant": "D55F", "abundance fitness": "-0.872 ± 0.13"}, {"variant": "T11Y", "abundance fitness": "-0.351 ± 0.1"}, {"variant": "T11G", "abundance fitness": "-0.919 ± 0.12"}, {"variant": "T11C", "abundance fitness": "-0.064 ± 0.12"}, {"variant": "T11F", "abundance fitness": "-0.08 ± 0.073"}, {"variant": "T11D", "abundance fitness": "-0.233 ± 0.13"}, {"variant": "T11V", "abundance fitness": "0.038 ± 0.049"}, {"variant": "R10C", "abundance fitness": "0.025 ± 0.077"}, {"variant": "R10T", "abundance fitness": "0.111 ± 0.063"}, {"variant": "R10P", "abundance fitness": "-0.318 ± 0.075"}, {"variant": "R10Y", "abundance fitness": "0.051 ± 0.096"}, {"variant": "R10V", "abundance fitness": "0.187 ± 0.057"}, {"variant": "R10K", "abundance fitness": "-0.002 ± 0.058"}, {"variant": "R10D", "abundance fitness": "-0.281 ± 0.092"}, {"variant": "T56I", "abundance fitness": "-0.47 ± 0.099"}, {"variant": "T56Y", "abundance fitness": "-0.225 ± 0.075"}, {"variant": "T56N", "abundance fitness": "-0.278 ± 0.3"}, {"variant": "T56A", "abundance fitness": "0.021 ± 0.047"}, {"variant": "T56D", "abundance fitness": "-0.069 ± 0.069"}, {"variant": "V1F", "abundance fitness": "-0.358 ± 0.21"}, {"variant": "V1L", "abundance fitness": "-0.076 ± 0.13"}, {"variant": "V1G", "abundance fitness": "-0.744 ± 0.17"}, {"variant": "K46G", "abundance fitness": "0.014 ± 0.039"}, {"variant": "K46L", "abundance fitness": "-0.437 ± 0.063"}, {"variant": "K46E", "abundance fitness": "0.102 ± 0.08"}, {"variant": "K46Y", "abundance fitness": "-0.41 ± 0.31"}, {"variant": "E64K", "abundance fitness": "-0.295 ± 0.1"}, {"variant": "E64F", "abundance fitness": "-0.867 ± 0.28"}, {"variant": "E64V", "abundance fitness": "-0.259 ± 0.12"}, {"variant": "E64T", "abundance fitness": "-0.006 ± 0.13"}, {"variant": "E64L", "abundance fitness": "-0.01 ± 0.048"}, {"variant": "E64M", "abundance fitness": "-0.085 ± 0.1"}, {"variant": "E64N", "abundance fitness": "-0.026 ± 0.35"}, {"variant": "V21I", "abundance fitness": "-0.602 ± 0.43"}, {"variant": "V21H", "abundance fitness": "-0.996 ± 0.3"}, {"variant": "V21S", "abundance fitness": "-0.858 ± 0.2"}, {"variant": "V21G", "abundance fitness": "-1.04 ± 0.18"}, {"variant": "V21Y", "abundance fitness": "-0.033 ± 0.31"}, {"variant": "V21Q", "abundance fitness": "-0.834 ± 0.25"}, {"variant": "V21P", "abundance fitness": "-0.99 ± 0.23"}, {"variant": "V21R", "abundance fitness": "-0.864 ± 0.15"}, {"variant": "C39E", "abundance fitness": "-1.16 ± 0.36"}, {"variant": "C39R", "abundance fitness": "-0.987 ± 0.2"}, {"variant": "C39N", "abundance fitness": "-0.848 ± 0.2"}, {"variant": "C39M", "abundance fitness": "-0.432 ± 0.1"}, {"variant": "C39G", "abundance fitness": "-0.944 ± 0.18"}, {"variant": "S20T", "abundance fitness": "0 ± 0.073"}, {"variant": "S20F", "abundance fitness": "-0.844 ± 0.32"}, {"variant": "S20A", "abundance fitness": "-0.808 ± 0.14"}, {"variant": "S20L", "abundance fitness": "-0.91 ± 0.093"}, {"variant": "S20N", "abundance fitness": "-0.122 ± 0.098"}, {"variant": "L29M", "abundance fitness": "0.191 ± 0.058"}, {"variant": "L29I", "abundance fitness": "-0.907 ± 0.34"}, {"variant": "L29E", "abundance fitness": "-0.947 ± 0.13"}, {"variant": "L29R", "abundance fitness": "-0.969 ± 0.099"}, {"variant": "V41L", "abundance fitness": "-0.143 ± 0.036"}, {"variant": "V41I", "abundance fitness": "-0.507 ± 0.17"}, {"variant": "V41K", "abundance fitness": "-0.685 ± 0.15"}, {"variant": "V41Y", "abundance fitness": "-0.938 ± 0.38"}, {"variant": "V41M", "abundance fitness": "-0.711 ± 0.16"}, {"variant": "V41P", "abundance fitness": "-0.555 ± 0.15"}, {"variant": "D26V", "abundance fitness": "-0.065 ± 0.051"}, {"variant": "R48T", "abundance fitness": "-0.072 ± 0.1"}, {"variant": "R48V", "abundance fitness": "0.05 ± 0.07"}]}]}
